Results as given in the supplement of paper PMC11316812.
± gives the standard deviation of the averaged measurements.

What was measured:
hTERT-HMEC = test: percentage of EdU-negative (G0-arrested) nuclei per well, 72 h; higher = more G0 arrest; conditions: reference: sequence is the full UniProt precursor, the tested protein was the secreted form or ectodomain
MCF7 = test: as above; conditions: reference: sequence is the full UniProt precursor, the tested protein was the secreted form or ectodomain
[1] = protein concentration 0.01425 µM
[2] = protein concentration 0.1425 µM
[3] = protein concentration 0.03125 µM
[4] = protein concentration 0.3125 µM
[5] = protein concentration 0.0254286 µM
[6] = protein concentration 0.254286 µM
[7] = protein concentration 0.0225 µM
[8] = protein concentration 0.01525 µM
[9] = protein concentration 0.1525 µM
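Also: secreted proteins added to cultured cells, EdU pulse at the end, nuclei found by Hoechst imaging, EdU status from nuclear versus surrounding ring intensity ratio, PBS as neutral control.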

MGLQTTKWPSHGAFFLKSWLIISLGLYSQVSKLLACPSVCRCDRNFVYCNERSLTSVPLGIPEGVTVLYLHNNQINNAGFPAELHNVQSVHTVYLYGNQLDEFPMNLPKNVRVLHLQENNIQTISRAALAQLLKLEELHLDDNSISTVGVEDGAFREAISLKLLFLSKNHLSSVPVGLPVDLQELRVDENRIAVISDMAFQNLTSLERLIVDGNLLTNKGIAEGTFSHLTKLKEFSIVRNSLSHPPPDLPGTHLIRLYLQDNQINHIPLTAFSNLRKLERLDISNNQLRMLTQGVFDNLSNLKQLTARNNPWFCDCSIKWVTEWLKYIPSSLNVRGFMCQGPEQVRGMAVRELNMNLLSCPTTTPGLPLFTPAPSTASPTTQPPTLSIPNPSRSYTPPTPTTSKLPTIPDWDGRERVTPPISERIQLSIHFVNDTSIQVSWLSLFTVMAYKLTWVKMGHSLVGGIVQERIVSGEKQHLSLVNLEPRSTYRICLVPLDAFNYRAVEDTICSEATTHASYLNNGSNTASSHEQTTSHSMGSPFLLAGLIGGAVIFVLVVLLSVFCWHMHKKGRYTSQKWKYNRGRRKDDYCEAGTKKDNSILEMTETSFQIVSLNNDQLLKGDFRLQPIYTPNGGINYTDCHIPNNMRYCNSSVPDLEHCHT
percentage of EdU-negative (hTERT-HMEC; [1]): 6.49 ± 1.2% | percentage of EdU-negative (hTERT-HMEC; [2]): 7.12 ± 0.37% | percentage of EdU-negative (MCF7; [1]): 22.9 ± 1.9% | percentage of EdU-negative (MCF7; [2]): 27 ± 0.45%

MGLSTVPDLLLPLVLLELLVGIYPSGVIGLVPHLGDREKRDSVCPQGKYIHPQNNSICCTKCHKGTYLYNDCPGPGQDTDCRECESGSFTASENHLRHCLSCSKCRKEMGQVEISSCTVDRDTVCGCRKNQYRHYWSENLFQCFNCSLCLNGTVHLSCQEKQNTVCTCHAGFFLRENECVSCSNCKKSLECTKLCLPQIENVKGTEDSGTTVLLPLVIFFGLCLLSLLFIGLMYRYQRWKSKLYSIVCGKSTPEKEGELEGTTTKPLAPNPSFSPTPGFTPTLGFSPVPSSTFTSSSTYTPGDCPNFAAPRREVAPPYQGADPILATALASDPIPNPLQKWEDSAHKPQSLDTDDPATLYAVVENVPPLRWKEFVRRLGLSDHEIDRLELQNGRCLREAQYSMLATWRRRTPRREATLELLGRVLRDMDLLGCLEDIEEALCGPAALPPAPSLLR
percentage of EdU-negative (hTERT-HMEC; [3]): 4.76 ± 0.43% | percentage of EdU-negative (hTERT-HMEC; [4]): 5.34 ± 0.28% | percentage of EdU-negative (MCF7; [3]): 24.9 ± 3.4% | percentage of EdU-negative (MCF7; [4]): 25.5 ± 0.84%

MGLTLLLLLLLGLEGQGIVGSLPEVLQAPVGSSILVQCHYRLQDVKAQKVWCRFLPEGCQPLVSSAVDRRAPAGRRTFLTDLGGGLLQVEMVTLQEEDAGEYGCMVDGARGPQILHRVSLNILPPEEEEETHKIGSLAENAFSDPAGSANPLEPSQDEKSIPLIWGAVLLVGLLVAAVVLFAVMAKRKQGNRLGVCGRFLSSRVSGMNPSSVVHHVSDSGPAAELPLDVPHIRLDSPPSFDNTTYTSLPLDSPSGKPSLPAPSSLPPLPPKVLVCSKPVTYATVIFPGGNKGGGTSCGPAQNPPNNQTPSS [Q86YW5]
percentage of EdU-negative (hTERT-HMEC; [5]): 5.07 ± 0.49% | percentage of EdU-negative (hTERT-HMEC; [6]): 5.75 ± 0.65% | percentage of EdU-negative (MCF7; [5]): 20.7 ± 3.4% | percentage of EdU-negative (MCF7; [6]): 26 ± 4.5%

MGLWGQSVPTASSARAGRYPGARTASGTRPWLLDPKILKFVVFIVAVLLPVRVDSATIPRQDEVPQQTVAPQQQRRSLKEEECPAGSHRSEYTGACNPCTEGVDYTIASNNLPSCLLCTVCKSGQTNKSSCTTTRDTVCQCEKGSFQDKNSPEMCRTCRTGCPRGMVKVSNCTPRSDIKCKNESAASSTGKTPAAEETVTTILGMLASPYHYLIIIVVLVIILAVVVVGFSCRKKFISYLKGICSGGGGGPERVHRVLFRRRSCPSRVPGAEDNARNETLSNRYLQPTQVSEQEIQGQELAELTGVTVELPEEPQRLLEQAEAEGCQRRRLLVPVNDADSADISTLLDASATLEEGHAKETIQDQLVGSEKLFYEEDEAGSATSCL [Q9UBN6]
percentage of EdU-negative (hTERT-HMEC; [7]): 4.16 ± 0.28% | percentage of EdU-negative (hTERT-HMEC; protein concentration 0.225 µM): 4.86 ± 0.69% | percentage of EdU-negative (MCF7; [7]): 24 ± 0.81% | percentage of EdU-negative (MCF7; protein concentration 0.225 µM): 24.3 ± 2%

MGPGRPAPAPWPRHLLRCVLLLGCLHLGRPGAPGDAALPEPNVFLIFSHGLQGCLEAQGGQVRVTPACNTSLPAQRWKWVSRNRLFNLGTMQCLGTGWPGTNTTASLGMYECDREALNLRWHCRTLGDQLSLLLGARTSNISKPGTLERGDQTRSGQWRIYGSEEDLCALPYHEVYTIQGNSHGKPCTIPFKYDNQWFHGCTSTGREDGHLWCATTQDYGKDERWGFCPIKSNDCETFWDKDQLTDSCYQFNFQSTLSWREAWASCEQQGADLLSITEIHEQTYINGLLTGYSSTLWIGLNDLDTSGGWQWSDNSPLKYLNWESDQPDNPSEENCGVIRTESSGGWQNRDCSIALPYVCKKKPNATAEPTPPDRWANVKVECEPSWQPFQGHCYRLQAEKRSWQESKKACLRGGGDLVSIHSMAELEFITKQIKQEVEELWIGLNDLKLQMNFEWSDGSLVSFTHWHPFEPNNFRDSLEDCVTIWGPEGRWNDSPCNQSLPSICKKAGQLSQGAAEEDHGCRKGWTWHSPSCYWLGEDQVTYSEARRLCTDHGSQLVTITNRFEQAFVSSLIYNWEGEYFWTALQDLNSTGSFFWLSGDEVMYTHWNRDQPGYSRGGCVALATGSAMGLWEVKNCTSFRARYICRQSLGTPVTPELPGPDPTPSLTGSCPQGWASDTKLRYCYKVFSSERLQDKKSWVQAQGACQELGAQLLSLASYEEEHFVANMLNKIFGESEPEIHEQHWFWIGLNRRDPRGGQSWRWSDGVGFSYHNFDRSRHDDDDIRGCAVLDLASLQWVAMQCDTQLDWICKIPRGTDVREPDDSPQGRREWLRFQEAEYKFFEHHSTWAQAQRICTWFQAELTSVHSQAELDFLSHNLQKFSRAQEQHWWIGLHTSESDGRFRWTDGSIINFISWAPGKPRPVGKDKKCVYMTASREDWGDQRCLTALPYICKRSNVTKETQPPDLPTTALGGCPSDWIQFLNKCFQVQGQEPQSRVKWSEAQFSCEQQEAQLVTITNPLEQAFITASLPNVTFDLWIGLHASQRDFQWVEQEPLMYANWAPGEPSGPSPAPSGNKPTSCAVVLHSPSAHFTGRWDDRSCTEETHGFICQKGTDPSLSPSPAALPPAPGTELSYLNGTFRLLQKPLRWHDALLLCESRNASLAYVPDPYTQAFLTQAARGLRTPLWIGLAGEEGSRRYSWVSEEPLNYVGWQDGEPQQPGGCTYVDVDGAWRTTSCDTKLQGAVCGVSSGPPPPRRISYHGSCPQGLADSAWIPFREHCYSFHMELLLGHKEARQRCQRAGGAVLSILDEMENVFVWEHLQSYEGQSRGAWLGMNFNPKGGTLVWQDNTAVNYSNWGPPGLGPSMLSHNSCYWIQSNSGLWRPGACTNITMGVVCKLPRAEQSSFSPSALPENPAALVVVLMAVLLLLALLTAALILYRRRQSIERGAFEGARYSRSSSSPTEATEKNILVSDMEMNEQQE [Q9UBG0]
percentage of EdU-negative (hTERT-HMEC; [8]): 4.54 ± 0.35% | percentage of EdU-negative (hTERT-HMEC; [9]): 6.08 ± 1.1% | percentage of EdU-negative (MCF7; [8]): 25.5 ± 1.7% | percentage of EdU-negative (MCF7; [9]): 24.5 ± 0.7%
